Results on one protein are retold here after PMC7282669, “The hydrophobic effect characterises the thermodynamic signature of amyloid fibril growth” (PLoS Computational Biology, 2020).

The data set concerns the molecule itself. Kind of data set: ITC; crystals injected into water; heat of crystal dissolution taken as the negative of the heat of crystal growth; two temperatures. For orientation: ITC needs no label: the signal is the heat of the interaction.

B1: GNNQQNY, a small fragment of the Sup35 protein (peptide)
peptide: GNNQQNY
notes: fragment of the Sup35 protein; Forms amyloid-like microcrystals; also called GNNQQNY peptide
Turning to B1, the binding result was “binds”.
